# Source: the RNAGym collection of RNA variant scans (doi:10.1021/acssynbio.7b00057)
# B1: Pistol ribozyme (parent)
# chain: GGGUCGUUGUUCCAUAAUCGCGUGGAUAUGGCACGCAAGUUUCUACCGGGCACCGUAAAUGUCCGACUGGAGCCGUUCGGGCGGCUAUAAACAGACCUCAGGCCCGAAGCGUGGCGGCACCUGCCGCCGGUGGUAAAAAAGAUCGGAAGAGCACACGUCU
# Variants of: B1
# Experiment: aptazyme ON/OFF ratio, guanine; higher = stronger switching; co-transcriptional cleavage with and without guanine
row,Variant,aptazyme ON/OFF ratio
1,U11G C12U,1.29
2,U11G C12G,1.34
3,U11G C12A,1.11
4,U10A U11G C12U,1.52
5,U10A U11G C12A,1.13
6,U10A U11G C12G,1.55
7,G9U U11G C13G,1.21
8,G9U U11G C13U,1.7
9,G9U U11G C13A,1.37
10,U10C U11A C12A C13A,1.37
11,U10C U11A C12A C13U,1.35
12,U10C U11A C12A C13G,1.36
13,U10C U11A C12U C13A,1.38
14,U10C U11A C12U C13U,1.19
15,U10C U11A C12U C13G,1.32
16,U10C U11C C12A C13U,1.08
17,U10C U11C C12A C13A,1.19
18,U10C U11C C12A C13G,1.17
19,G9U U11C C12G C13A,1.3
20,G9U U11C C12G C13G,1.28
21,G9U U11C C12G C13U,1.68
22,U10C U11C C12G C13G,1.16
23,U10C U11C C12G C13U,1.11
24,U10C U11C C12G C13A,1.17

row,Variant,aptazyme ON/OFF ratio
1,U11G C13A,1.05
2,U11G C13G,1.03
3,U11G C13U,1.06
4,G9U U11C C13A,1.22
5,G9U U11C C13U,1.37
6,G9U U11C C13G,1.06
7,U10A U11C C12U,1.04
8,U10A U11C C12G,1.15
9,U10A U11C C12A,1.16
10,U10C U11A C13G,1.08
11,U10C U11A C13U,1.23
12,U10C U11A C13A,1.25
13,U10C U11A,1.47
14,U10C U11C,1.06
15,U10C U11G,1.57
16,C12A C13G,1.27
17,C12A C13A,1.34
18,C12A C13U,1.9
19,U10A C12G,1.65
20,U10A C12A,1.62
21,U10A C12U,1.16
22,U10C U11G C12G C13U,1.11
23,U10C U11G C12G C13A,1.24
24,U10C U11G C12G C13G,1.23

row,Variant,aptazyme ON/OFF ratio
1,U10G C13A,1.13
2,U10G C13G,1.32
3,U10G C13U,1.5
4,U11C C12U,1.57
5,U11C C12G,1.55
6,U11C C12A,1.43
7,U10C U11A C12G C13U,1.37
8,U10C U11A C12G C13A,1.29
9,U10C U11A C12G C13G,1.25
10,U10C C12U C13A,1.13
11,U10C C12U C13U,1.21
12,U10C C12U C13G,1.1
13,U10G U11G C12A C13G,1.11
14,U10G U11G C12A C13A,1.15
15,U10G U11G C12A C13U,1.22
16,U10C U11G C12U C13A,1.36
17,U10C U11G C12U C13U,1.28
18,U10C U11G C12U C13G,1.33
19,U10G C12A C13G,1.06
20,U10G C12A C13A,1.25
21,U10G C12A C13U,1.19
22,U11C C12U C13A,1.4
23,U11C C12U C13G,1.43
24,U11C C12U C13U,1.52

row,Variant,aptazyme ON/OFF ratio
1,U10G U11A C12G C13A,1.16
2,U10G U11A C12G C13G,1.34
3,U10G U11A C12G C13U,1.33
4,U11C C12G C13G,1.49
5,U11C C12G C13U,1.33
6,U11C C12G C13A,1.46
7,U10C U11C C13A,1.02
8,U10C U11C C13U,1.03
9,U10C U11C C13G,1.07
10,G9U U11C C12U C13A,1.51
11,G9U U11C C12U C13G,1.23
12,G9U U11C C12U C13U,1.34
13,U10C U11G C13G,1.22
14,U10C U11G C13U,1.35
15,U10C U11G C13A,1.27
16,U11A C12U C13A,1.36
17,U11A C12U C13U,1.45
18,U11A C12U C13G,1.37
19,U10G U11C C12A C13G,1.12
20,U10G U11C C12A C13A,1.23
21,U10G U11C C12A C13U,1.4
22,C12U,1.91
23,C12G,1.45
24,C12A,1.76

row,Variant,aptazyme ON/OFF ratio
1,U10G U11C C13A,1.05
2,U10G U11C C13G,1.04
3,U10G U11C C13U,1.04
4,U11A C12A,2.18
5,U11A C12U,1.64
6,U11A C12G,1.28
7,U10G U11A C13G,1.12
8,U10G U11A C13U,1.05
9,U10G U11A C13A,1.15
10,G9U U11G C12U C13A,1.43
11,G9U U11G C12U C13U,1.29
12,G9U U11G C12U C13G,1.43
13,U10A U11G C12U C13A,1.62
14,U10A U11G C12U C13G,1.24
15,U10A U11G C12U C13U,1.27
16,U10G U11A C12U,1.15
17,U10G U11A C12G,1.4
18,U10G U11A C12A,1.39
19,U10C U11A C12A,1.48
20,U10C U11A C12U,1.45
21,U10C U11A C12G,1.47
22,C12U C13A,1.28
23,C12U C13G,1.29
24,C12U C13U,1.26

row,Variant,aptazyme ON/OFF ratio
1,U10A U11G C12A C13A,1.04
2,U10A U11G C12A C13G,1.23
3,U10A U11G C12A C13U,1.46
4,U11G C12G C13G,1.27
5,U11G C12G C13A,1.2
6,U11G C12G C13U,1.32
7,U10C U11G C12G,1.25
8,U10C U11G C12U,1.31
9,U10C U11G C12A,1.1
10,U10A U11A C12U C13A,1.54
11,U10A U11A C12U C13G,1.35
12,U10A U11A C12U C13U,1.69
13,U10G C12A,1.41
14,U10G C12G,1.12
15,U10G C12U,1.58
16,U10A C12G C13A,1.4
17,U10A C12G C13G,1.17
18,U10A C12G C13U,1.47
19,U10G U11G C12A,1.37
20,U10G U11G C12G,1.4
21,U10G U11G C12U,1.38
22,U10A U11C C12A C13A,1.17
23,U10A U11C C12A C13G,1.28
24,U10A U11C C12A C13U,1.23

row,Variant,aptazyme ON/OFF ratio
1,U10C U11C C12U C13G,1.06
2,U10C U11C C12U C13A,1.07
3,U10C U11C C12U C13U,1.02
4,U11C C13A,1.2
5,U11C C13U,1.24
6,U11C C13G,1.07
7,U10G U11C C12U,1.08
8,U10G U11C C12G,1.43
9,U10G U11C C12A,1.51
10,U10G U11A C12U C13G,1.2
11,U10G U11A C12U C13U,1.36
12,U10G U11A C12U C13A,1.28
13,U10C C12A C13U,1.18
14,U10C C12A C13G,1.19
15,U10C C12A C13A,1.23
16,U11A C13G,1.12
17,U11A C13U,1.29
18,U11A C13A,1.26
19,U11A,1.84
20,U11G,1.22
21,U11C,1.53
22,U10A U11C C13A,1.02
23,U10A U11C C13G,1.04
24,U10A U11C C13U,1.01

row,Variant,aptazyme ON/OFF ratio
1,G9U U11G C12A C13A,1.31
2,G9U U11G C12A C13G,1.32
3,G9U U11G C12A C13U,1.36
4,U11A C12A C13U,1.47
5,U11A C12A C13A,1.59
6,U11A C12A C13G,1.53
7,U10G U11G C12U C13A,1.32
8,U10G U11G C12U C13G,1.3
9,U10G U11G C12U C13U,1.26
10,U10A U11G C12G C13A,1.27
11,U10A U11G C12G C13G,1.42
12,U10A U11G C12G C13U,1.43
13,U10A U11C C12G C13A,1.15
14,U10A U11C C12G C13U,1.23
15,U10A U11C C12G C13G,1.29
16,U10G U11G C12G C13G,1.18
17,U10G U11G C12G C13U,1.26
18,U10G U11G C12G C13A,1.1
19,U10G C12U C13A,1.33
20,U10G C12U C13G,1.28
21,U10G C12U C13U,1.15
22,U10A U11A C13G,1.12
23,U10A U11A C13U,1.35
24,U10A U11A C13A,1.31

row,Variant,aptazyme ON/OFF ratio
1,U10A U11A C12G C13G,1.3
2,U10A U11A C12G C13U,1.23
3,U10A U11A C12G C13A,1.42
4,U10G U11C C12G C13U,1.48
5,U10G U11C C12G C13G,1.14
6,U10G U11C C12G C13A,1.28
7,U10A C12U C13A,1.3
8,U10A C12U C13U,1.54
9,U10A C12U C13G,1.33
10,U10A U11C C12U C13A,1.06
11,U10A U11C C12U C13U,1.03
12,U10A U11C C12U C13G,1.08
13,G9U U11G,1.74
14,U10A U11A C12U,1.64
15,U10A U11A C12A,1.18
16,U10A U11A C12G,1.83
17,U10A C13U,1.08
18,U10A C13G,1.1
19,U10A C13A,1.11
20,U11G C12A C13A,1.14
21,U11G C12A C13G,1.22
22,U11G C12A C13U,1.24
23,U10G C12G C13G,1.09
24,U10G C12G C13U,1.34

row,Variant,aptazyme ON/OFF ratio
1,U10G C12G C13A,1.17
2,U10A U11G,2.01
3,U10A U11C,1.05
4,U10A U11A,1.73
5,U11G C12U C13A,1.1
6,U11G C12U C13G,1.04
7,U11G C12U C13U,1.11
8,U10A C12A C13A,1.22
9,U10A C12A C13G,1.19
10,U10A C12A C13U,1.31
11,G9U U11C C12A C13U,1.36
12,G9U U11C C12A C13A,1.48
13,G9U U11C C12A C13G,1.36
14,G9U U11G C12G C13G,1.36
15,G9U U11G C12G C13A,1.49
16,G9U U11G C12G C13U,1.21
17,C12G C13U,1.36
18,C12G C13A,1.37
19,C12G C13G,1.33
20,G9U U11C C12G,1.83
21,G9U U11C C12U,2.4
22,U10C U11G C12A C13G,1.31
23,U10C U11G C12A C13A,1.27
24,U10C U11G C12A C13U,1.3

row,Variant,aptazyme ON/OFF ratio
1,U10G,1.88
2,U10C,3.69
3,U10A,1.15
4,U10C C12G C13A,1.24
5,U10C C12G C13U,1.35
6,U10C C12G C13G,1.09
7,U10C C12A,1.51
8,U10C C12G,1.36
9,U10C C12U,2.09
10,U10C C13A,1.06
11,U10C C13G,1.05
12,U10C C13U,1.08
13,U11C C12A C13G,1.43
14,U11C C12A C13A,1.53
15,U11C C12A C13U,1.31
16,U11A C12G C13G,1.18
17,U11A C12G C13A,1.11
18,U11A C12G C13U,1.42
19,G9U U11G C12G,2.82
20,G9U U11G C12U,1.99
21,G9U U11G C12A,2.21
22,U10A U11A C12A C13A,1.39
23,U10A U11A C12A C13G,1.18
24,U10A U11A C12A C13U,1.47

row,Variant,aptazyme ON/OFF ratio
1,C13A,1.36
2,C13U,1.38
3,C13G,1.13
4,U10A U11G C13G,1.19
5,U10A U11G C13A,1.33
6,U10A U11G C13U,1.37
7,U10G U11G C13A,1.26
8,U10G U11G C13G,1.21
9,U10G U11G C13U,1.16
10,U10G U11A,1.12
11,U10G U11G,1.22
12,U10G U11C,1.03
13,U10G U11C C12U C13A,1.2
14,U10G U11C C12U C13U,1.11
15,U10G U11C C12U C13G,1.27
16,U10G U11A C12A C13U,1.27
17,U10G U11A C12A C13A,1.11
18,U10G U11A C12A C13G,1.06
19,U10C U11C C12G,1.07
20,U10C U11C C12A,1.27
21,U10C U11C C12U,1.08
